Reference: the supplement of paper PMC11246515
± gives the standard deviation of the averaged measurements.

Assay: total protein half-life in vivo (active degradation + dilution); higher = more stable protein
[1] = E. coli NCM3722 delta-hslV, growth: N-lim chemostat, doubling time 6 h
[2] = wild type E. coli NCM3722, growth: C-lim chemostat, doubling time 3 h
[3] = wild type E. coli NCM3722, growth: C-lim chemostat, doubling time 6 h
[4] = wild type E. coli NCM3722, growth: C-lim chemostat, doubling time 12 h
[5] = wild type E. coli NCM3722, growth: N-lim chemostat, doubling time 12 h
[6] = E. coli NCM3722 delta-clpP, growth: N-lim chemostat, doubling time 6 h
[7] = E. coli NCM3722 delta-lon, growth: N-lim chemostat, doubling time 6 h
[8] = E. coli NCM3722 delta-smpB, growth: N-lim chemostat, doubling time 6 h
[9] = wild type E. coli NCM3722, growth: N-lim chemostat, doubling time 6 h
[10] = wild type E. coli NCM3722, growth: P-lim chemostat, doubling time 6 h
[11] = E. coli NCM3722 delta-clpP delta-lon delta-hslV, growth: N-lim chemostat, doubling time 6 h
[12] = wild type E. coli NCM3722, growth: P-lim chemostat, doubling time 12 h

Sequence | total protein half-life in vivo [1] [h] | total protein half-life in vivo [2] [h] | total protein half-life in vivo [3] [h] | total protein half-life in vivo [4] [h] | total protein half-life in vivo [5] [h] | total protein half-life in vivo [6] [h] | total protein half-life in vivo [7] [h] | total protein half-life in vivo [8] [h] | total protein half-life in vivo [9] [h] | total protein half-life in vivo [10] [h] | total protein half-life in vivo [11] [h] | total protein half-life in vivo [12] [h]
MNLKLQLKILSFLQFCLWGSWLTTLGSYMFVTLKFDGASIGAVYSSLGIAAVFMPALLGIVADKWLSAKWVYAICHTIGAITLFMAAQVTTPEAMFLVILINSFAYMPTLGLINTISYYRLQNAGMDIVTDFPPIRIWGTIGFIMAMWVVSLSGFELSHMQLYIGAALSAILVLFTLTLPHIPVAKQQANQSWTTLLGLDAFALFKNKRMAIFFIFSMLLGAELQITNMFGNTFLHSFDKDPMFASSFIVQHASIIMSISQISETLFILTIPFFLSRYGIKNVMMISIVAWILRFALFAYGDPTPFGTVLLVLSMIVYGCAFDFFNISGSVFVEKEVSPAIRASAQGMFLMMTNGFGCILGGIVSGKVVEMYTQNGITDWQTVWLIFAGYSVVLAFAFMAMFKYKHVRVPTGTQTVSH [P0AFF4] | > 8 | 1.79 | 6.63 | 10.8 ± 2.5 | 4.5 | – | – | – | – | – | – | –
MNLLTVSTDLISIFLFTTLFLFFARKVAKKVGLVDKPNFRKRHQGLIPLVGGISVYAGICFTFGIVDYYIPHASLYLACAGVLVFIGALDDRFDISVKIRATIQAAVGIVMMVFGKLYLSSLGYIFGSWEMVLGPFGYFLTLFAVWAAINAFNMVDGIDGLLGGLSCVSFAAIGMILWFDGQTSLAIWCFAMIAAILPYIMLNLGILGRRYKVFMGDAGSTLIGFTVIWILLETTQGKTHPISPVTALWIIAIPLMDMVAIMYRRLRKGMSPFSPDRQHIHHLIMRAGFTSRQAFVLITLAAALLASIGVLAEYSHFVPEWVMLVLFLLAFFLYGYCIKRAWKVARFIKRVKRRLRRNRGGSPNLTK [P0AC78] | 5.89 ± 0.39 | 3.68 ± 0.28 | 5.75 | 11.8 ± 2.3 | 10.4 | 6.35 | 5.27 ± 0.83 | 5.8 ± 0.18 | 6.03 | 6.33 ± 0.36 | – | –
MNLQRFDDSTLIRIFALHELHRLKEHGLTRGALLDYHSRYKLVFLAHSQPEYRKLGPFVADIHQWQNLDDYYNQYRQRVVVLLSHPANPRDHTNVLMHVQGYFRPHIDSTERQQLAALIDSYRRGEQPLLAPLMRIKHYMALYPDAWLSGQRYFELWPRVINLRHSGVL | 4.914 ± 0.015 | – | 5.12 | 11.2 | 7.5 ± 0.48 | 4.66 ± 0.34 | 5.47 ± 0.14 | 4.55 ± 0.27 | 4.54 ± 0.59 | 5.11 ± 0.081 | 5.09 ± 0.47 | 12 ± 0.13
MNLTLKESLVTRSRVFSPWTAFYFLQSLLINLGLGYPFSLLYTAAFTAILLLLWRTLPRVQKVLVGVSSLVAACYFPFAQAYGAPNFNTLLALHSTNMEESTEILTIFPWYSYLVGLFIFALGVIAIRRKKENEKARWNTFDSLCLVFSVATFFVAPVQNLAWGGVFKLKDTGYPVFRFAKDVIVNNNEVIEEQERMAKLSGMKDTWTVTAVKPKYQTYVVVIGESARRDALGAFGGHWDNTPFASSVNGLIFADYIAASGSTQKSLGLTLNRVVDGKPQFQDNFVTLANRAGFQTWWFSNQGQIGEYDTAIASIAKRADEVYFLKEGNFEADKNTKDEALLDMTAQVLAQEHSQPQLIVLHLMGSHPQACDRTQGKYETFVQSKETSCYLYTMTQTDDLLRKLYDQLRNSGSSFSLVYFSDHGLAFKERGKDVQYLAHDDKYQQNFQVPFMVISSDDKAHRVIKARRSANDFLGFFSQWTGIKAKEINIKYPFISEKKAGPIYITNFQLQKVDYNHLGTDIFDPKP | 5.49 ± 1.6 | 2.94 ± 0.12 | – | 10.2 ± 1.1 | 10.2 | 4.97 ± 0.21 | 5.01 | 3.31 ± 0.29 | 4.59 ± 0.6 | – | 4.78 ± 0.78 | 8.42
MNNDNTDYVSNESGTLSRLFKLPQHGTTVRTELIAGMTTFLTMVYIVFVNPQILGAAQMDPKVVFVTTCLIAGIGSIAMGIFANLPVALAPAMGLNAFFAFVVVGAMGISWQTGMGAIFWGAVGLFLLTLFRIRYWMISNIPLSLRIGITSGIGLFIALMGLKNTGVIVANKDTLVMIGDLSSHGVLLGILGFFIITVLSSRHFHAAVLVSIVVTSCCGLFFGDVHFSGVYSIPPDISGVIGEVDLSGALTLELAGIIFSFMLINLFDSSGTLIGVTDKAGLIDGNGKFPNMNKALYVDSVSSVAGAFIGTSSVTAYIESTSGVAVGGRTGLTAVVVGVMFLLVMFFSPLVAIVPPYATAGALIFVGVLMTSSLARVNWDDFTESVPAFITTVMMPFTFSITEGIALGFMSYCIMKVCTGRWRDLNLCVVVVAALFALKIILVD | – | 3.27 | 5.84 | – | – | – | – | – | – | – | – | –
MNNDVFPNKFKAALAAKQVQIGCWSALSNPISTEVLGLAGFDWLVLDGEHAPNDISTFIPQLMALKGSASAPVVRVPTNEPVIIKRLLDIGFYNFLIPFVETKEEAELAVASTRYPPEGIRGVSVSHRANMFGTVADYFAQSNKNITILVQIESQQGVDNVDAIAATEGVDGIFVGPSDLAAALGHLGNASHPDVQKAIQHIFNRASAHGKPSGILAPVEADARRYLEWGATFVAVGSDLGVFRSATQKLADTFKK | 2.99 ± 0.14 | 3.2103 ± 7.8e-05 | 5.123 ± 0.023 | 9.79 ± 0.92 | 7.58 | 4.02 ± 1.4 | 3.19 | 3.51 ± 0.42 | 3.355 ± 0.022 | – | 4.58 ± 0.62 | 11.6 ± 0.72
MNNIQIRNYQPGDFQQLCAIFIRAVTMTASQHYSPQQISAWAQIDESRWKEKLAKSQVWVAIINAQPVGFISRIEHYIDMLFVDPEYTRRGVASALLKPLIKSESELTVDASITAKPFFERYGFQTVKQQRVECRGAWFTNFYMRYKPQH | 3.82 | – | > 8 | – | – | 3.71 ± 0.28 | – | 2.9 | > 8 | – | 4.81 | 9.48 ± 0.24
MNNIQLAHGSGGQAMQQLINSLFMEAFANPWLAEQEDQARLDLAQLVAEGDRLAFSTDSYVIDPLFFPGGNIGKLAICGTANDVAVSGAIPRYLSCGFILEEGLPMETLKAVVTSMAETARAAGIAIVTGDTKVVQRGAVDKLFINTAGMGAIPANIHWGAQTLTAGDVLLVSGTLGDHGATILNLREQLGLDGELVSDCAVLTPLIQTLRDIPGVKALRDATRGGVNAVVHEFAAACGCGIELSEAALPVKPAVRGVCELLGLDALNFANEGKLVIAVERNAAEQVLAALHSHPLGKDAALIGEVVERKGVRLAGLYGVKRTLDLPHAEPLPRIC | 3.27 ± 0.042 | 2.96 ± 0.3 | – | 9.14 ± 0.81 | 4.8 ± 0.18 | 3.16 ± 0.4 | 3.76 ± 0.14 | 3.59 ± 0.38 | 3.28 ± 0.28 | 4.98 ± 0.13 | 3.91 ± 0.43 | 9.482 ± 0.012
